This note sets out measurements from patent US20250073311A1, “DOSAGE REGIME” (ZEALAND PHARMA A/S, priority 2021, published 2025).

Sequences and labels used below:
T1: human GLP-2 receptor (hGLP2-R) (human, UniProt O95838)
T1 sequence: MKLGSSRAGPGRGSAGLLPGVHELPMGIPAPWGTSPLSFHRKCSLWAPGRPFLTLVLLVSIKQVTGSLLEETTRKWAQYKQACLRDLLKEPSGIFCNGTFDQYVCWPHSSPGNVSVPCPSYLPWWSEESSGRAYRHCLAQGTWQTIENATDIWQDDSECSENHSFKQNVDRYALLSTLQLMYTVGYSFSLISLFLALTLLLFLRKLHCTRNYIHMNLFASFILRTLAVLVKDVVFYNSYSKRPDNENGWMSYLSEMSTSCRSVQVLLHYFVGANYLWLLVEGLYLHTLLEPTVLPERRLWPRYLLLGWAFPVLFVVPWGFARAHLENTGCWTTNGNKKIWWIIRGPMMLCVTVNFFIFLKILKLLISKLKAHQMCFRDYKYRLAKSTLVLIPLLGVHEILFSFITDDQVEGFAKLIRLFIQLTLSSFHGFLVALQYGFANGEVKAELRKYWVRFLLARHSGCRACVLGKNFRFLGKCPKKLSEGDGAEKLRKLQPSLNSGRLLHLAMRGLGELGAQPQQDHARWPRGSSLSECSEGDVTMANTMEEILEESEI

B1: Compound 24 (peptide)
peptide: H-H[Aib]EGSFTSELATILDK([γGlu-C18 diacid])QAARDFIAWLIEHKITD-OH
SMILES: CC[C@H](C)[C@H](NC(=O)[C@H](Cc1ccccc1)NC(=O)[C@H](CC(=O)O)NC(=O)[C@H](CCCNC(=N)N)NC(=O)[C@H](C)NC(=O)[C@H](C)NC(=O)[C@H](CCC(N)=O)NC(=O)[C@H](CCCCNC(=O)CC[C@H](NC(=O)CCCCCCCCCCCCCCCCC(=O)O)C(=O)O)NC(=O)[C@H](CC(=O)O)NC(=O)[C@H](CC(C)C)NC(=O)[C@@H](NC(=O)[C@@H](NC(=O)[C@H](C)NC(=O)[C@H](CC(C)C)NC(=O)[C@H](CCC(=O)O)NC(=O)[C@H](CO)NC(=O)[C@@H](NC(=O)[C@H](Cc1ccccc1)NC(=O)[C@H](CO)NC(=O)CNC(=O)[C@H](CCC(=O)O)NC(=O)C(C)(C)NC(=O)[C@@H](N)Cc1c[nH]cn1)[C@@H](C)O)[C@@H](C)O)[C@@H](C)CC)C(=O)N[C@@H](C)C(=O)N[C@@H](Cc1c[nH]c2ccccc12)C(=O)N[C@@H](CC(C)C)C(=O)N[C@H](C(=O)N[C@@H](CCC(=O)O)C(=O)N[C@@H](Cc1c[nH]cn1)C(=O)N[C@@H](CCCCN)C(=O)N[C@H](C(=O)N[C@H](C(=O)N[C@@H](CC(=O)O)C(=O)O)[C@@H](C)O)[C@@H](C)CC)[C@@H](C)CC
B2: Compound 26 (peptide)
peptide: H-H[Aib]EGSFTSELATILDK([γGlu-C18 diacid])QAARDFIAWLIHHKITD-OH
SMILES: CC[C@H](C)[C@H](NC(=O)[C@H](Cc1ccccc1)NC(=O)[C@H](CC(=O)O)NC(=O)[C@H](CCCNC(=N)N)NC(=O)[C@H](C)NC(=O)[C@H](C)NC(=O)[C@H](CCC(N)=O)NC(=O)[C@H](CCCCNC(=O)CC[C@H](NC(=O)CCCCCCCCCCCCCCCCC(=O)O)C(=O)O)NC(=O)[C@H](CC(=O)O)NC(=O)[C@H](CC(C)C)NC(=O)[C@@H](NC(=O)[C@@H](NC(=O)[C@H](C)NC(=O)[C@H](CC(C)C)NC(=O)[C@H](CCC(=O)O)NC(=O)[C@H](CO)NC(=O)[C@@H](NC(=O)[C@H](Cc1ccccc1)NC(=O)[C@H](CO)NC(=O)CNC(=O)[C@H](CCC(=O)O)NC(=O)C(C)(C)NC(=O)[C@@H](N)Cc1c[nH]cn1)[C@@H](C)O)[C@@H](C)O)[C@@H](C)CC)C(=O)N[C@@H](C)C(=O)N[C@@H](Cc1c[nH]c2ccccc12)C(=O)N[C@@H](CC(C)C)C(=O)N[C@H](C(=O)N[C@@H](Cc1c[nH]cn1)C(=O)N[C@@H](Cc1c[nH]cn1)C(=O)N[C@@H](CCCCN)C(=O)N[C@H](C(=O)N[C@H](C(=O)N[C@@H](CC(=O)O)C(=O)O)[C@@H](C)O)[C@@H](C)CC)[C@@H](C)CC
B3: Compound 23 (peptide)
peptide: H-H[Aib]EGTFTSELATILDK([γGlu-C18 diacid])QAARDFIAWLIAHKITD-OH
SMILES: CC[C@H](C)[C@H](NC(=O)[C@H](CC(C)C)NC(=O)[C@H](Cc1c[nH]c2ccccc12)NC(=O)[C@H](C)NC(=O)[C@@H](NC(=O)[C@H](Cc1ccccc1)NC(=O)[C@H](CC(=O)O)NC(=O)[C@H](CCCNC(=N)N)NC(=O)[C@H](C)NC(=O)[C@H](C)NC(=O)[C@H](CCC(N)=O)NC(=O)[C@H](CCCCNC(=O)CC[C@H](NC(=O)CCCCCCCCCCCCCCCCC(=O)O)C(=O)O)NC(=O)[C@H](CC(=O)O)NC(=O)[C@H](CC(C)C)NC(=O)[C@@H](NC(=O)[C@@H](NC(=O)[C@H](C)NC(=O)[C@H](CC(C)C)NC(=O)[C@H](CCC(=O)O)NC(=O)[C@H](CO)NC(=O)[C@@H](NC(=O)[C@H](Cc1ccccc1)NC(=O)[C@@H](NC(=O)CNC(=O)[C@H](CCC(=O)O)NC(=O)C(C)(C)NC(=O)[C@@H](N)Cc1c[nH]cn1)[C@@H](C)O)[C@@H](C)O)[C@@H](C)O)[C@@H](C)CC)[C@@H](C)CC)C(=O)N[C@@H](C)C(=O)N[C@@H](Cc1c[nH]cn1)C(=O)N[C@@H](CCCCN)C(=O)N[C@H](C(=O)N[C@H](C(=O)N[C@@H](CC(=O)O)C(=O)O)[C@@H](C)O)[C@@H](C)CC
B4: Compound 21 (peptide)
peptide: H-H[Aib]EGTFSSELATILDK([γGlu-C18 diacid])QAARDFIAWLIAHKITD-OH
SMILES: CC[C@H](C)[C@H](NC(=O)[C@H](CC(C)C)NC(=O)[C@H](Cc1c[nH]c2ccccc12)NC(=O)[C@H](C)NC(=O)[C@@H](NC(=O)[C@H](Cc1ccccc1)NC(=O)[C@H](CC(=O)O)NC(=O)[C@H](CCCNC(=N)N)NC(=O)[C@H](C)NC(=O)[C@H](C)NC(=O)[C@H](CCC(N)=O)NC(=O)[C@H](CCCCNC(=O)CC[C@H](NC(=O)CCCCCCCCCCCCCCCCC(=O)O)C(=O)O)NC(=O)[C@H](CC(=O)O)NC(=O)[C@H](CC(C)C)NC(=O)[C@@H](NC(=O)[C@@H](NC(=O)[C@H](C)NC(=O)[C@H](CC(C)C)NC(=O)[C@H](CCC(=O)O)NC(=O)[C@H](CO)NC(=O)[C@H](CO)NC(=O)[C@H](Cc1ccccc1)NC(=O)[C@@H](NC(=O)CNC(=O)[C@H](CCC(=O)O)NC(=O)C(C)(C)NC(=O)[C@@H](N)Cc1c[nH]cn1)[C@@H](C)O)[C@@H](C)O)[C@@H](C)CC)[C@@H](C)CC)C(=O)N[C@@H](C)C(=O)N[C@@H](Cc1c[nH]cn1)C(=O)N[C@@H](CCCCN)C(=O)N[C@H](C(=O)N[C@H](C(=O)N[C@@H](CC(=O)O)C(=O)O)[C@@H](C)O)[C@@H](C)CC
B5: Compound 22 (peptide)
peptide: H-H[Aib]EGSFTSELATILDK([γGlu-C18 diacid])QAARDFIAWLIAHKITD-OH
SMILES: CC[C@H](C)[C@H](NC(=O)[C@H](CC(C)C)NC(=O)[C@H](Cc1c[nH]c2ccccc12)NC(=O)[C@H](C)NC(=O)[C@@H](NC(=O)[C@H](Cc1ccccc1)NC(=O)[C@H](CC(=O)O)NC(=O)[C@H](CCCNC(=N)N)NC(=O)[C@H](C)NC(=O)[C@H](C)NC(=O)[C@H](CCC(N)=O)NC(=O)[C@H](CCCCNC(=O)CC[C@H](NC(=O)CCCCCCCCCCCCCCCCC(=O)O)C(=O)O)NC(=O)[C@H](CC(=O)O)NC(=O)[C@H](CC(C)C)NC(=O)[C@@H](NC(=O)[C@@H](NC(=O)[C@H](C)NC(=O)[C@H](CC(C)C)NC(=O)[C@H](CCC(=O)O)NC(=O)[C@H](CO)NC(=O)[C@@H](NC(=O)[C@H](Cc1ccccc1)NC(=O)[C@H](CO)NC(=O)CNC(=O)[C@H](CCC(=O)O)NC(=O)C(C)(C)NC(=O)[C@@H](N)Cc1c[nH]cn1)[C@@H](C)O)[C@@H](C)O)[C@@H](C)CC)[C@@H](C)CC)C(=O)N[C@@H](C)C(=O)N[C@@H](Cc1c[nH]cn1)C(=O)N[C@@H](CCCCN)C(=O)N[C@H](C(=O)N[C@H](C(=O)N[C@@H](CC(=O)O)C(=O)O)[C@@H](C)O)[C@@H](C)CC
B6: Compound 25 (peptide)
peptide: H-H[Aib]EGTFTSELATILDK([γGlu-C18 diacid])QAARDFIAWLIEHKITD-OH
SMILES: CC[C@H](C)[C@H](NC(=O)[C@H](Cc1ccccc1)NC(=O)[C@H](CC(=O)O)NC(=O)[C@H](CCCNC(=N)N)NC(=O)[C@H](C)NC(=O)[C@H](C)NC(=O)[C@H](CCC(N)=O)NC(=O)[C@H](CCCCNC(=O)CC[C@H](NC(=O)CCCCCCCCCCCCCCCCC(=O)O)C(=O)O)NC(=O)[C@H](CC(=O)O)NC(=O)[C@H](CC(C)C)NC(=O)[C@@H](NC(=O)[C@@H](NC(=O)[C@H](C)NC(=O)[C@H](CC(C)C)NC(=O)[C@H](CCC(=O)O)NC(=O)[C@H](CO)NC(=O)[C@@H](NC(=O)[C@H](Cc1ccccc1)NC(=O)[C@@H](NC(=O)CNC(=O)[C@H](CCC(=O)O)NC(=O)C(C)(C)NC(=O)[C@@H](N)Cc1c[nH]cn1)[C@@H](C)O)[C@@H](C)O)[C@@H](C)O)[C@@H](C)CC)C(=O)N[C@@H](C)C(=O)N[C@@H](Cc1c[nH]c2ccccc12)C(=O)N[C@@H](CC(C)C)C(=O)N[C@H](C(=O)N[C@@H](CCC(=O)O)C(=O)N[C@@H](Cc1c[nH]cn1)C(=O)N[C@@H](CCCCN)C(=O)N[C@H](C(=O)N[C@H](C(=O)N[C@@H](CC(=O)O)C(=O)O)[C@@H](C)O)[C@@H](C)CC)[C@@H](C)CC

Numbered stars: 1 amine (or outer) side, 2 acyl side, 3 side chain; on linkers, the order of the positions; unused ones are H or OH. Square brackets hold non-standard residues; d marks the D form. Side chains are listed from the residue outwards. * marks the point of attachment. C18 diacid = O=C(O)CCCCCCCCCCCCCCCCC(=O)*; γGlu = O=C(O)[C@H](CCC(=O)[*:2])N[*:1]; Aib = CC(C)(N)C(=O)O

The first test addresses human glucagon-like peptide 1 receptor (GLP-1R) (human, UniProt P43220). In words: cell-based or functional assay.
On to B1, for which the “EC50 GLP-1 (nM), cAMP AlphaScreen” value was 0.21 nM.
For B2, the “EC50 GLP-1 (nM), cAMP AlphaScreen” value turned out to be 0.29 nM.
Consider B3, for which the “EC50 GLP-1 (nM), cAMP AlphaScreen” value turned out to be 0.13 nM.
Turning to B4, the “EC50 GLP-1 (nM), cAMP AlphaScreen” value was 1.8 nM.
B5: the “EC50 GLP-1 (nM), cAMP AlphaScreen” value was determined as 0.23 nM.
With B6, the “EC50 GLP-1 (nM), cAMP AlphaScreen” value came out at 0.094 nM.

Another test concerns the target T1, human GLP-2 receptor (hGLP2-R). In words: cell-based or functional assay.
For B1, the “EC50 GLP-2 (nM), cAMP AlphaScreen” value turned out to be 0.17 nM.
Same read-out and setting: the same measure for B2: 0.59 nM; for B3: 0.24 nM; for B4: 0.27 nM.
Same read-out and setting: under B5 stands 0.2 nM.
As to B6, the “EC50 GLP-2 (nM), cAMP AlphaScreen” value was 0.33 nM.
